From patent US20220016205A1, “METHODS OF OVERCOMING RESISTANCE TO IMMUNE CHECKPOINT INHIBITORS” (Board of Regents, The University of Texas System, priority 2018, published 2022)

Key:
RAW 264.7 cells = assay: qPCR of p38α, IL-1α, IL-1β, TNF-α, RANTES in RAW 264.7 cells treated with BMP7 or BMP7 plus follistatin; format: cell-based, murine; conditions: BMP7 plus follistatin versus BMP7 only, 24 or 48 hours (FIG. 3H)
Description: (§1) Quantitative polymerase chain reaction (qPCR). Total RNA was isolated from cells and tumors with Triazol (Life Technologies) according to the manufacturer's protocol. For studies of BMP7, p38α, IL-1α, IL-1β, TNF-α, RANTES, IL-2, and IFN-γ expression, mRNA was retrotranscribed with the iScript™ gDNA Clear cDNA Synthesis Kit (BioRad) and analyzed by qPCR using SYBR Green (Life Technologies) with specific primers according to the manufacturer's protocol. The comparative Ct method was used to calculate the relative abundance of mRNAs compared with ACTB (beta-actin) expression for cancer cells or CD45 expression for immune cells.
(§2) Co-culture experiments and treatments. Viable cells were counted with a hemocytometer (0.4% Trypan blue solution) and diluted to 40,000 cells per well in 24-wells plates. Cells from 344SQP, 344SQR, 344SQ ctrl, or 344SQ-shBMP7 tumors were seeded at the top inserts (24-mm Transwell with 0.4-μm pore polycarbonate membrane insert, Sigma-Aldrich), and RAW 264.7 or CD4^+ T cells were seeded at the bottom of the transwell system. […] RNA was then isolated from RAW 264.7 or CD4^+ T cells and analyzed for p38α, IL-1α, IL-1β, TNF-α, RANTES, IL-2 and IFN-γ expression with qPCR.

peritoneal macrophages [1] = assay: qPCR of p38α, IL-1α, IL-1β, TNF-α, RANTES in peritoneal macrophages treated with BMP7 or BMP7 plus follistatin; format: cell-based, mouse; conditions: BMP7 plus follistatin compared with BMP7 only
Description: as §1, §2

peritoneal macrophages [2] = assay: qPCR in peritoneal macrophages co-cultured with 344SQR cells (transwell) with follistatin or K02288; format: cell-based, mouse; conditions: 344SQR co-culture plus follistatin versus 344SQR co-culture only, 24 or 48 hours (FIG. 3J)
344SQR tumors = assay: Tumor growth and survival of mice with anti-PD1-resistant 344SQR tumors treated with follistatin, anti-PD1 or both; format: in vivo, 129Sv/Ev mice; conditions: follistatin 0.1 mg/kg i.p. (with or without anti-PD1 10 mg/kg), 2 weeks
Description: In vivo studies. All mouse studies were approved by the Institutional Animal Care and Use Committee (IACUC) of The University of Texas MD Anderson Cancer Center before their initiation; animal care was provided according to IACUC standards, and all mice had been bred and were maintained in our own specific pathogen-free mouse colony. For RRBS, RPPA and TILs studies, primary tumors were established by subcutaneous injection of 344SQP or 344SQR cells (0.5×10^6 in 100 μL of sterile phosphate buffered saline [PBS]) into the leg of syngeneic 129Sv/Ev mice (female, 12-16 weeks old). Mice were then given intraperitoneal injections of anti-PD1 or control IgG antibodies (10 mg/kg) (Bio X cell), starting on day 4 after tumor cell inoculation and continuing twice per week for a total of 4 doses. At 24 hours after the last anti-PD1 treatment, tumor tissues were collected for DNA (2 mice/group) and protein isolation (2 or 3 mice/group). For TILs isolation, tumor tissues (3 mice/group) were collected a week after the last treatment with anti-PD1. […] Tumors were measured with calipers three times per week and recorded as tumor volume (in mm^3)=width^2×length/2. […] Mouse survival rates were analyzed by using the Kaplan-Meier method and compared with log-rank tests.

B1: follistatin: BMP7 antagonist protein, natural inhibitor of BMP7 (R&D Systems, Catalog #769-FS-025) (protein, UniProt P19883 30-344, looked up)
Follistatin: GNCWLRQAKNGRCQVLYKTELSKEECCSTGRLSTSWTEEDVNDNTLFKWMIFNGGAPNCIPCKETCENVDCGPGKKCRMNKKNKPRCVCAPDCSNITWKGPVCGLDGKTYRNECALLKARCKEQPELEVQYQGRCKKTCRDVFCPGSSTCVVDQTNNAYCVTCNRICPEPASSEQYLCGNDGVTYSSACHLRKATCLLGRSIGLAYEGKCIKAKSCEDIQCTGGKKCLWDFKVGRGRCSLCDELCPDSKSDEPVCASDNATYASECAMKEAACSSGVLLEVKHSGSCNSISEDTEEEEEDEDQDYSFPISSILEW
expression of p38a and p38α-regulated cytokines and chemokines (RAW 264.7 cells): higher expression | levels of p38α, IL-1α, TNF-α, IL-1β, and RANTES (peritoneal macrophages [1]): higher levels | expression of p38a and p38α-regulated cytokines and chemokines (peritoneal macrophages [2]): higher expression | tumor growth (344SQR tumors; compared with anti-PD1 therapy only (FIG. 5C)): decreased tumor growth | survival (344SQR tumors; compared with anti-PD1 therapy only, Kaplan-Meier (FIG. 5C)): extended survival
